# The nanobody polyreactivity screen of Harvey et al. (2022)
# Experiment: yeast display, Sf9 membrane polyspecificity reagent, FACS + sequencing; frameworks hold sequencing errors
# Summary of the method: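 A synthetic nanobody library was expressed on Saccharomyces cerevisiae BJ5465 by galactose induction for 36–48 hours. The library was stained for 1 hour at 4 °C with 10% biotinylated, detergent-solubilized Sf9 membrane reagent and enriched with streptavidin microbeads before FACS. Low and high (top ~1%) gates were set on anti-HA fluorescence for expression and streptavidin fluorescence for reagent binding, and each polyreactivity label reflects the gate of origin.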
row,Sequence,polyreactivity (PSR sort gate)
1,QDQLVESGGGLVQAGGSLRLSCAASGNIFWSNAMGWYRQAPVKERELVAGIRSTGGSTYYADSVKGRFTISRDNAKNTVYLQMNSLKPEDTAVYYCAAEHWYSTPWWTDDYWGQGTQVTLSS,high polyreactivity
2,QVQIVESGGGLVEAGGSLRLSCAASGRTFWYIAMGWYRQSPGKASELVAAISYTGSRTYYADSVKGRFTISRYNAKNTVYLQMNSLKPDDTAVYYCNALARRPDAYAHYGYWGQGTQVSVSS,high polyreactivity
3,QVQLVESGGGLVQAGGSLRLSCAASGYIFLANAMGWYRQAPGKVRELVAAITSGGGGTYYADSVKGRFTFSRDNAKNTVYLQMNSLKPEDTAVYYCAADHGRDGSSFEYWGQGTQVTVSS,low polyreactivity
4,QVQLVESGGGLVQAGGSLRLSCAASGSTFRGYAMGWYRQATGKERELVAAISSSGGRTYYADSVKGRFTISRDNAKNPVYLQMNSLKREDTAVYYCNAASKNSVRYAYQNYDYRGQGTQVTVSS,high polyreactivity
5,QVQLVESGGCLVQAGGSLRLSCASSGFTFDIYAMGWYRQAPGKERELVATISFTGDTTSYADSGKGRFTISRDNAKNTVYLQMNSLKPEDTAVYYCAADGSYPLSVGRENLHYAEFDYWGKGTQVTVSS,low polyreactivity
6,QVQLVESGGGLVQAGGSLRLSCAASGSIFRWYAMGWYRQAPGKERELVAAISRRGGRTYYADSVKGRFTISRDNAKNTVYLQMNSLKPEDSAVYYCNADFGYRLPGNYWGQGTQVTVSS,low polyreactivity
7,QVQLVESGGGLVQAGGSLRLSCAASGSIFAINAMGWYRQAPGKERELVAAIRRRDGNTYYADSVKGRFTISRDNAKNSVYLQMNSLKPEDTAVYYCNTYSRRTSVIAYRYNYWGQGTQVTVSS,high polyreactivity
8,QVQLVESGGGLVQAGGSLRLTCAASGSTSPANTMGWYRQAPGKETEFVAGISRRGGRTYYADSVKGRFTISRDNAKNTVYLQMNSLKPEDTAVFYCATALIVRCPSRYEYWGQGTQVTVSS,high polyreactivity
9,QVQLVESGGGLVQAGGSLRLSCAASGGINGTYTMGWYRQAPGKEREMGAAISKRGGNTYYADSVKGRFTISRDNAKNTVYLQMNSLKPEDTAVYYCAKRVSGSPPTAGSLSDSWGQGTQVTVSS,high polyreactivity
10,QVQLVESGGGLVQAGGSLRLSCAASGSTFDFNAMGWSRQAPGKERELVAAITYSGGSTYYADSVKGRFTISRDNAKNTVYLKMNSLKPEDTAVYYCAAEDVYPGSIDMDYWGQGTQVTVSS,low polyreactivity
11,QVQLVESGGGLVQAGGSLRLSCAASGRIFSLYAMGWYRQAPGKERELVAAISWSGGTTYYADSVKGRFTISRDNAKNTVYLQMNSLKPEDTAVYYCAADTGTGLDWGQGSQVTVSS,high polyreactivity
12,LVHHVESGGGLVQAGRSLRLTCAASGGTFFSNAMGWYRQSPGKERELVAGITSGGRTYYADAVKGRFTISRDNAMNTVYLQMNSMKPEDTAVFYCAAERFTRKYNYWGQGTQVTLSS,high polyreactivity
13,QVQLVESGGGLVQAGGSLRLSCAASGRTFYNYAMGWYRQAPGKEREFVAAISSSGGSTYYADSVKGRFTISRDNAKNTVYLQMNSLKPEDTAVYYCAAYYISFDYWGQGTKVTVSS,high polyreactivity
14,QVQLVESGGGLVQAGGSLRLSCAASGLTFSIYAMGWYRQEPGKERELVARITWNSGSTYYADSVKGRFTISRDNAKNTVYLQMNSLKPEDTAVYYCNARFWGSGVGDLWEGVRYDYWGQGTQVTVSS,high polyreactivity
15,QVQLVESGGGLVQAGGSLRLSCAASGFTFAAYAMGWSRQAPGKERELVAAISRSGGSTYYADSVKGRFTISRDNAKNTVYLQMNSLKPEDTAVYYCAAYGWPKYNYWGQGTQVTVSS,high polyreactivity
16,QVQLVESGGGLVQAGGSLRLSCAASGITFYDYAMGRYRQAPGKERELVAAISGGGITYYADSVKGRFTISRDNAKNTVYLQMNSLKPEDTAVYYCAAVYIAGYGYDYWGQGTQVTVSS,low polyreactivity
17,QVQLVESGGGLVQAGGSLRLSCAASGLTFHSNDMGRYRQAPWKETEFVAAITSGGNTYYADSVKGRFTISRDNAKNTVYLPMNSLKPEDTAVYYCNADYQDEEDDYWGQGTQVTVSS,low polyreactivity
18,QVQLVESGGGLVQAGGSLRLSCAASGSIFRYYAMGWYRQAPGKERELVAGITGSTGRTYYADSVKGRFTISRDKAKNTVYLELNSLKPVDTEVYYCSARSRYYEYDYWGQGTQVTVTS,low polyreactivity
19,QVQLVESGGGLVQAGGSLRLSCAASGFIFYFYAMGWYRQAPGKERELVAAISYNGGSTYYADSVKGRFTISRDNAKNTVYLQMNSLKPEDTAVYYCNAVRNYAWGKMYSWGQGTQVTVSS,high polyreactivity
20,QVQLVESGGGLVQAGGSLRLRCAASGSIFPLYAMGWYRQAPGKERELVAAITSSGGRTYYADSVKGRFTISRDNAKNTVYLQMNSLKPEDTAVYYCNAGYYVRRDYDYWGQGTQVTVSS,low polyreactivity
21,QVQLVESGGGLVQAGGSLGLSCAASGRTFAKYAMGWYRQAPGKERELVAAITRGDTTNYADSVKGRFTISRDNAKNTGYLQMHRLKPEDTAVYYCAATPDPPHTYEYWGQVTQVTVSS,low polyreactivity
22,QVQLVESGGGLVQAGGSLRLSCAASGRTFYRNAMGWYRQATGKERELVAAISRGDSTYYADSVKGRFTISRDNAKKTVYLQMNSLKPEDTAVYYCAKRARRIGDVNMGSWGQGTQVTVSS,low polyreactivity

row,Sequence,polyreactivity (PSR sort gate)
1,QVQLVESGGGLVQAGGSLRLSCAASGNIFLFYAMGWYRQAPGKERELVATLSWRGVGTYYADSVKGRFTISRDKAKNTGYIQMNSLKPEDTAVYYCAARGVWPEYDYWGQGTQVTVSS,low polyreactivity
2,QVRLVESGGGLVKAGGSLRLSSAASGSTFWSYAMGCYRQATGKERELVAAISWSGDSTYYADSVKGRFTISRDNAKNTVYLQMNSLKPEDTAVYYCAADYVGGSYEYEYWGQGTQVTVSS,low polyreactivity
3,QVHLVESGRGLVQAGGSLRLSCAASGIIFYDYSMGWYRQAPGKERELVAAISWDGVSSYYADSVKGRFTISRDNAKNTVYLQMNSLKPEATAVYYCAARAVTDDDYEFDDWGQGTQVTVSS,low polyreactivity
4,QVQLVESGGGLVQAGGSLRLSCAASGRIFVANAMGWYRQAPGKERELVAAISGRGSRTYYADSVKGRFTISRDNAKNAVYLQMNSLKPEDTAVYYCNARQRRNPGGYGYWGQGTQVTVSS,high polyreactivity
5,QVQLVESGGGLVQAGGSLRLSCAASGLIFIHNTMRWYRQAPGKERELVAAISWSGASTYYADSVKGRFTISRDNAKNTVYLQMNSLKPEDTAVYYCNAGYRYSIYDYWGQGTQVTVSS,low polyreactivity
6,QVQLVESGGGLVQAGGSLRLSCAASGYTFYYYAMGWYRQAPGKERELVAGISGRGGSTYYADSVKGRFTISRDNAKNTVYLQMNSLKPEDTAVYYCAATSPRAGTRRYEYWGQGTQVTVSS,high polyreactivity
7,QVQLVESGGGLVQAGGSLRLSCAASGSIFVGNAMGWYRQAPGKERELVATISWSGGSTYYADSVKGRFTISRDNAKNTVYLQMNSLKPEDTAVYYCAKTPYRRYRYGGYTYRTYDYWGQGTQVTVSS,low polyreactivity
8,QVQLVDSGGGLVQAGGSLRLSCAASGSILAINTMGWYRPAPGKEREFVAAISAGGTSTYYADSVKGRFTISRDNAKNTVSLQMNSLKPEDTAVYYCAAIFIIYRTGYRRYYWGQGTQVTVSS,high polyreactivity
9,QVQLVESGGGLVQAGGSLRLSCAASGSTFEYNAMRWYRQAPGKERELVAAITWSVGSTYYADSVKGRFTISRDNAKNSVSIQMNSLKPEDTAVDYCARVPSAFARWHTYDYWGQGTQVTVSS,low polyreactivity
10,QVQLVESGGGLVQAGGRLRLSCAASGSTFGYYARGWYRQAPGKERELVAAISTSSGSKYFADSVKGRFTISRDNAKNTVYLQMNSLKPEDTAVYYCNARKASYRSIYYYWGQGTQVTVSS,high polyreactivity
11,QVQLVESGGGLVQAGGSLRLSCAASGRIFDYNTMGWYRQAPGKEREFVAAITSSGGRTYYADSVKGRFTISRDNAKNTVYLQMNSLKPEDTAVYYCAARLNIYYRRMGYWGQGTQVTVSS,high polyreactivity
12,QVQLVESGGGLVQAGGSLRLSCAASGYTFSQNAMGWYRQAPGKEREVVAGITTRGTTTYYADSVKGRFTISRDNAKNTVYLQMNSLKPEDTPVYYCAADNSYTDNYWGQGTQVTVSS,low polyreactivity
13,QVQLVESGGGLVKAGGILRLSCAASGSTFWKYAMGWYRQAPGKERELVAAINSGGSTYYADSVKGRFTISRDNAKNTVYLQMNSLKPEDTAVYYCAAVYVDRRKRSYYWGQGTQVTVSS,high polyreactivity
14,QVQLVESGGGLVQAGGSLRLSCAASGSIFDVYTMGWYRQAPGKVRELVAAINTGGGSTYYADSVMGRFTISRDNAKNTVYLEMNSLKPEDTAVYYCAASVYHYGPLYYWGEGTQVTVSS,low polyreactivity
15,QVQLVESGGGLVQAGGSLRLSCAASVLIFDGYAMGWYRQAPGKEREFVADIDFGGGSTYYADSVKGRFTISRDNAKNTVYLQMNSLKPEDTAVYYCNAVWDDYGFYSPYVVVEYDYWGQGTQVTVSS,high polyreactivity
16,QVQLVESGGGLDQAGGSLRLSCDASGSSFRKYAMVLYRQAPGKEREFVAAISSSGGRTYYADSVKGRFTISRDNAKYTVYLQMNSLKPEDTSVYYFADDVYSDRYDYWGQGTQVTVSS,high polyreactivity
17,QVQLVESGGGLVQAGGSLRLSCAASGRNFGSYAMGWYRQAPGKERELVAAITSGGSTYYADSVKGRFTISRDNAKNTVYLQMNSLKPEDTAVYYCAARQVRTSKLHMGYWGQGTQVTVSS,low polyreactivity
18,QVQLVESGGGLVQAGGSLRLSCAASGSIFFTYAMGWYRQAPGKERELVAGISWGGGSTHYADSVKGRFTISRDNAKNTVYLQMNSLKPEDTAVYYCARVWPYPSTEYGYTGRLYDYWGQGTQVTVSS,low polyreactivity
19,QVQLVESGGALVQAGGSLRLTCAASGRIYTRYAMGWNRKATGKERELVAVITRSGGSTYYADSVKGRFTISRDNGKNTVYLQMNSLNPEVTAVYDCAAKYYGEMYYWGQGTQVTVSS,low polyreactivity
20,QVQLVESGGGLVQAGRSLRLSCAASGSTFKVYAMGWYRQAPGKERELVAAISASDGSTYYPDSVKGRFTISRDNAKKTVYVQMYRLKPEDTAVYYFAAVLYSDKATYDYWGQGTQVTVSS,low polyreactivity
21,QVQLVESGGGLVQAGGSLRLSCAASGITFRRYTMGWYRQAPGKEMELVAAISRIGGSTYYADSVKGRFTISRDNAKNTVYLQMNSLKPEDTAVYYCARAGRVQPGSEDDYWGQGTQVTVSS,high polyreactivity
